Assay results reported in IntAct's records for PubMed 29892012.

B1: Genetic suppressor element 1 (Homo sapiens), Q14687 (parent)
chain: MKGMSHEPKSPSLGMLSTATRTTATVNPLTPSPLNGALVPSGSPATSSALSAQAAPSSSFAAALRKLAKQAEEPRGSSLSSESSPVSSPATNHSSPASTPKRVPMGPIIVPPGGHSVPSTPPVVTIAPTKTVNGVWRSESRQDAGSRSSSGGRERLIVEPPLPQEKAGGPAIPSHLLSTPYPFGLSPSSVVQDSRFPPLNLQRPVHHVVPPSTVTEDYLRSFRPYHTTDDLRMSSLPPLGLDPATAAAYYHPSYLAPHPFPHPAFRMDDSYCLSALRSPFYPIPTPGSLPPLHPSAMHLHLSGVRYPPELSHSSLAALHSERMSGLSAERLQMDEELRREREREREREREREADREREKEREREREKEREQEKEREREKERERELERQREQRAREKELLAAKALEPSFLPVAELHGLRGHATEERGKPSEQLTPTRAEKLKDAGLQAPKPVQHPLHPVPTPHHTVPSLISNHGIFSLPSSSAATALLIQRTNEEEKWLARQRRLRQEKEDRQSQVSEFRQQVLEQHLDMGRPPVPAEAEHRPESTTRPGPNRHEPGGRDPPQHFGGPPPLISPKPQLHAAPTALWNPVSLMDNTLETRRAESHSLHSHPAAFEPSRQAAVPLVKVERVFCPEKAEEGPRKREPAPLDKYQPPPPPPREGGSLEHQPFLPGPGPFLAELEKSTQTILGQQRASLPQAATFGELSGPLKPGSPYRPPVPRAPDPAYIYDEFLQQRRRLVSKLDLEERRRREAQEKGYYYDLDDSYDESDEEEVRAHLRCVAEQPPLKLDTSSEKLEFLQLFGLTTQQQKEELVAQKRRKRRRMLRERSPSPPTIQSKRQTPSPRLALSTRYSPDEMNNSPNFEEKKKFLTIFNLTHISAEKRKDKERLVEMLRAMKQKALSAAVADSLTNSPRDSPAVSLSEPATQQASLDVEKPVGVAASLSDIPKAAEPGKLEQVRPQELSRVQELAPASGEKARLSEAPGGKKSLSMLHYIRGAAPKDIPVPLSHSTNGKSKPWEPFVAEEFAHQFHESVLQSTQKALQKHKGSVAVLSAEQNHKVDTSVHYNIPELQSSSRAPPPQHNGQQEPPTARKGPPTQELDRDSEEEEEEDDEDGEDEEEVPKRKWQGIEAVFEAYQEHIEEQNLERQVLQTQCRRLEARHYSLSLTAEQLSHSVAELRSQKQKMVSERERLQAELDHLRKCLALPAMHWPRGYLKGYPR
partner: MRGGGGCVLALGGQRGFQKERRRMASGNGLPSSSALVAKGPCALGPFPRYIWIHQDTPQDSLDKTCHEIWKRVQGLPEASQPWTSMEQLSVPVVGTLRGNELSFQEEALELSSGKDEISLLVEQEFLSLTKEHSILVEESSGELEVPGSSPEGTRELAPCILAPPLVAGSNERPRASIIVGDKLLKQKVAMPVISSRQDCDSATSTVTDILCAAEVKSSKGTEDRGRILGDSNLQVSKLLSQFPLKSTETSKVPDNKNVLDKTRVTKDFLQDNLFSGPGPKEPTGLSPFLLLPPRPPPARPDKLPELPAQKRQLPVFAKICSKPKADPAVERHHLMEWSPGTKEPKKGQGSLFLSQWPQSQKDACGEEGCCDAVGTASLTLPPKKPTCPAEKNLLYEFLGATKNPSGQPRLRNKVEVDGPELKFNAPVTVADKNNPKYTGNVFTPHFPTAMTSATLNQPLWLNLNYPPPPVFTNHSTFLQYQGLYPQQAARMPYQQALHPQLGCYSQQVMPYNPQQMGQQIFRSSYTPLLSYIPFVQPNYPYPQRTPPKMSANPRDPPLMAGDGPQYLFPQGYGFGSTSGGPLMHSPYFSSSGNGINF
B2: Vacuolar protein-sorting-associated protein 25 (Homo sapiens), Q9BRG1 (parent)
chain: MAMSFEWPWQYRFPPFFTLQPNVDTRQKQLAAWCSLVLSFCRLHKQSSMTVMEAQESPLFNNVKLQRKLPVESIQIVLEELRKKGNLEWLDKSKSSFLIMWRRPEEWGKLIYQWVSRSGQNNSVFTLYELTNGEDTEDEEFHGLDEATLLRALQALQQEHKAEIITVSDGRGVKFF
partner: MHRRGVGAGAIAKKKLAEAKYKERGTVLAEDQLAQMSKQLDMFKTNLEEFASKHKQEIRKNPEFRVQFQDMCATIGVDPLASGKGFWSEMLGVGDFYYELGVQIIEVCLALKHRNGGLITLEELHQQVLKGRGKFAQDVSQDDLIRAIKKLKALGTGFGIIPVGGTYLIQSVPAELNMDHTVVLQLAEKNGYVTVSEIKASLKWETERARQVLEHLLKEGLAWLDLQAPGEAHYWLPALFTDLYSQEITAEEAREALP
B3: Coiled-coil domain-containing protein 120 (Homo sapiens), Q96HB5-4 (parent)
chain: MRREPRYQGQVGPDIHTDSERTLSSHQPRPLDSTKMEVKGQLISSPTFNAPAALFGEAAPQVKSERLRGLLDRQRTLQEALSLKLQELRKVCLQEAELTGQLPPECPLEPGERPQLVRRRPPTARAYPPPHPNQAHHSLCPAEELALEALEREVSVQQQIAAAARRLALAPDLSTEQRRRRRQVQADALRRLHELEEQLRDVRARLGLPVLPLPQPLPLSTGSVITTQGVCLGMRLAQLSQEDVVLHSESSSLSESGASHDNEEPHGCFSLAERPSPPKAWDQLRAVSGGSPERRTPWKPPPSDLYGDLKSRRNSVASPTSPTRSLPRSASSFEGRSVPATPVLTRGAGPQLCKPEGLHSRQWSGSQDSQMGFPRADPASDRASLFVARTRRSNSSEALLVDRAAGGGAGSPPAPLAPSASGPPVCKSSEVLYERPQPTPAFSSRTAGPPDPPRAARPSSAAPASRGAPRLPPVCGDFLLDYSLDRGLPRSGGGTGWGELPPAAEVPGPLSRRDGLLTMLPGPPPVYAADSNSPLLRTKDPHTRATRTKPCGLPPEAAEGPEVHPNPLLWMPPPTRIPSAGERSGHKNLALEGLRDWYIRNSGLAAGPQRRPVLPSVGPPHPPFLHARCYEVGQALYGAPSQAPLPHSRSFTAPPVSGRYYADFLYPPELSARLSDLTLEGEQSSSSDTQTPGTLV
partner: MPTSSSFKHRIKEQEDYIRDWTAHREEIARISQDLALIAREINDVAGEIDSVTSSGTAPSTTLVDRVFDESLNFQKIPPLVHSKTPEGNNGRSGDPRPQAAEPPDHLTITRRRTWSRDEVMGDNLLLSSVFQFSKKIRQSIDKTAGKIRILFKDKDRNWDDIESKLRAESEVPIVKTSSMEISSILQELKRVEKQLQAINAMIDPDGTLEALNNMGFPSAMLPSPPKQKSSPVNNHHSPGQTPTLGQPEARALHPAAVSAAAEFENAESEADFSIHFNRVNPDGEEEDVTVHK
B4: Kinetochore protein NDC80 homolog (Homo sapiens), O14777 (parent)
chain: MKRSSVSSGGAGRLSMQELRSQDVNKQGLYTPQTKEKPTFGKLSINKPTSERKVSLFGKRTSGHGSRNSQLGIFSSSEKIKDPRPLNDKAFIQQCIRQLCEFLTENGYAHNVSMKSLQAPSVKDFLKIFTFLYGFLCPSYELPDTKFEEEVPRIFKDLGYPFALSKSSMYTVGAPHTWPHIVAALVWLIDCIKIHTAMKESSPLFDDGQPWGEETEDGIMHNKLFLDYTIKCYESFMSGADSFDEMNAELQSKLKDLFNVDAFKLESLEAKNRALNEQIARLEQEREKEPNRLESLRKLKASLQGDVQKYQAYMSNLESHSAILDQKLNGLNEEIARVELECETIKQENTRLQNIIDNQKYSVADIERINHERNELQQTINKLTKDLEAEQQKLWNEELKYARGKEAIETQLAEYHKLARKLKLIPKGAENSKGYDFEIKFNPEAGANCLVKYRAQVYVPLKELLNETEEEINKALNKKMGLEDTLEQLNAMITESKRSVRTLKEEVQKLDDLYQQKIKEAEEEDEKCASELESLEKHKHLLESTVNQGLSEAMNELDAVQREYQLVVQTTTEERRKVGNNLQRLLEMVATHVGSVEKHLEEQIAKVDREYEECMSEDLSENIKEIRDKYEKKATLIKSSEE
partner: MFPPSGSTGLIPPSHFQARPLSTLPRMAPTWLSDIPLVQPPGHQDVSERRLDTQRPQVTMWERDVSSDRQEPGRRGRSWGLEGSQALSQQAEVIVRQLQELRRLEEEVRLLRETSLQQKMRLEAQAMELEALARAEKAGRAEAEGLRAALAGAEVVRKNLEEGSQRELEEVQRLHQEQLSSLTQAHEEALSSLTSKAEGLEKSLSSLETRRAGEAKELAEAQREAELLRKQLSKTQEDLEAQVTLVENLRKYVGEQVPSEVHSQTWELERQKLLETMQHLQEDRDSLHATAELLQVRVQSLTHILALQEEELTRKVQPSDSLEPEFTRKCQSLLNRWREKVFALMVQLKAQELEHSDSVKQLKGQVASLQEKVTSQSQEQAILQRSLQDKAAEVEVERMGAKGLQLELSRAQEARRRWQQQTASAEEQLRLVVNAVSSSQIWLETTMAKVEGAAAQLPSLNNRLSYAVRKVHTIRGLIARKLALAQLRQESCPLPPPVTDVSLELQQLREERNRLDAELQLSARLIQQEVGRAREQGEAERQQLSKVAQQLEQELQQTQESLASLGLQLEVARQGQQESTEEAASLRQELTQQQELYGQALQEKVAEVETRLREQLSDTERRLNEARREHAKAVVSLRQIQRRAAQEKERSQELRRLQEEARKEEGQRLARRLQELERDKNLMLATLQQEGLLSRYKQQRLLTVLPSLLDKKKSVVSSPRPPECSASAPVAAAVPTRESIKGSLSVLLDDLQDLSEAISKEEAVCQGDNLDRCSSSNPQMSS
B5: DNA topoisomerase 3-beta-1 (Homo sapiens), O95985 (parent)
chain: MKTVLMVAEKPSLAQSIAKILSRGSLSSHKGLNGACSVHEYTGTFAGQPVRFKMTSVCGHVMTLDFLGKYNKWDKVDPAELFSQAPTEKKEANPKLNMVKFLQVEGRGCDYIVLWLDCDKEGENICFEVLDAVLPVMNKAHGGEKTVFRARFSSITDTDICNAMACLGEPDHNEALSVDARQELDLRIGCAFTRFQTKYFQGKYGDLDSSLISFGPCQTPTLGFCVERHDKIQSFKPETYWVLQAKVNTDKDRSLLLDWDRVRVFDREIAQMFLNMTKLEKEAQVEATSRKEKAKQRPLALNTVEMLRVASSSLGMGPQHAMQTAERLYTQGYISYPRTETTHYPENFDLKGSLRQQANHPYWADTVKRLLAEGINRPRKGHDAGDHPPITPMKSATEAELGGDAWRLYEYITRHFIATVSHDCKYLQSTISFRIGPELFTCSGKTVLSPGFTEVMPWQSVPLEESLPTCQRGDAFPVGEVKMLEKQTNPPDYLTEAELITLMEKHGIGTDASIPVHINNICQRNYVTVESGRRLKPTNLGIVLVHGYYKIDAELVLPTIRSAVEKQLNLIAQGKADYRQVLGHTLDVFKRKFHYFVDSIAGMDELMEVSFSPLAATGKPLSRCGKCHRFMKYIQAKPSRLHCSHCDETYTLPQNGTIKLYKELRCPLDDFELVLWSSGSRGKSYPLCPYCYNHPPFRDMKKGMGCNECTHPSCQHSLSMLGIGQCVECESGVLVLDPTSGPKWKVACNKCNVVAHCFENAHRVRVSADTCSVCEAALLDVDFNKAKSPLPGDETQHMGCVFCDPVFQELVELKHAASCHPMHRGGPGRRQGRGRGRARRPPGKPNPRRPKDKMSALAAYFV

Variants of: B1
Details: with ca094_human C1orf94, Q6P1W5

Variant | effect of a mutation on the interaction
R503Q | with no effect

Variants of: B2
Details: with snf8_human SNF8, Q96H20

Variant | effect of a mutation on the interaction
P58Q | with no effect

Variants of: B3
Details: with CEP170P1, Q96L14

Variant | effect of a mutation on the interaction
R346W | with no effect

Variants of: B4
Details: with cchcr_human CCHCR1, Q8TD31

Variant | effect of a mutation on the interaction
K288E | with no effect

Variants of: B5
Details: with spre2_human SPRED2, Q7Z698
spre2_human SPRED2, Q7Z698, sequence (Q7Z698 whole entry): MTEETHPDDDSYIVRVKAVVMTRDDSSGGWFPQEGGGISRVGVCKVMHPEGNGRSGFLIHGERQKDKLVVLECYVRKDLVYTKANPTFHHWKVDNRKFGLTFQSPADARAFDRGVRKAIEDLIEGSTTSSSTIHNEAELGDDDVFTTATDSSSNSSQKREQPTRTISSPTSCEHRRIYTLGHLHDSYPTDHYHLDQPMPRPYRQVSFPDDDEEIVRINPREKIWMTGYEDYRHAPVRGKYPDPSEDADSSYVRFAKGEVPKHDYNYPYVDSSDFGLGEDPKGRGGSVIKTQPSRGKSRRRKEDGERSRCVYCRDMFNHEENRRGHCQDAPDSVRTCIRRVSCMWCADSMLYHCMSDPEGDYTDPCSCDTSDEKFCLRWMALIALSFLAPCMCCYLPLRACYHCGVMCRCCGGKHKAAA

Variant | effect of a mutation on the interaction
C666R | disrupting interaction strength
